Experimental data taken from the DeepSol protein solubility set.

Assay: soluble on expression in E. coli; label from the status in PepcDB or PDB records
With “MQDEVVLLDFWPSPFGMRVRIALAEKGIKYEYKEEDLRNKSPLLLQMNPVHKKIPVLIHNGKPICESLIAVQYIEEVWNDRNPLLPSDPYQRAQTRFWADYVDKKIYDLGRKIWTSKGEEKEAAKKEFIEALKLLEEQLGDKTYFGGDNLGFVDIALVPFYTWFKAYETFGTLNIESECPKFIAWAKRCLQKESVAKSLPDQQKVYEFIMDLRKKLGIE” the “soluble on expression in E. coli” value was “soluble”. For “MQDLKVISKHYAKALKNHTKSDLALLEEIVVGLKNATEAIRQHKLNQVLAHVSLKVKKEVVFEILEKITSIKACSVLKPVMEVVLKNNRLDMLELITEELSFDSKRTLEATLLVPEKLENNELEAVQQKLQARFNAPVEITQDTWSKKGVSLSVSSLDLEIGFSKEDILKKIEKQVIQSI”, the “soluble on expression in E. coli” value was “not soluble”. In the case of “MQEKYNFGKVSSQHKNYSKIETMLRPKGFDKLDHYFRTELDIDLTDETIELLLNSVKAAFGKLFYGAEQRARWNGRDFIALADLNITKALEEHIKNFQKIEQDMGVDELLEYIAFIPPVEMNVGEDLKSEYRNIMGGLLLMHADVIKKATGERKPSREAMEFVAQIVDKVF”, the “soluble on expression in E. coli” value is reported as “soluble”. For “MQFGIFTIGDVTTDPTTGVTPSEHDRINAMTQIALKAEEVGLDVFATGEHHNPPFVPSSPTTHLAYIAAQTKNIQLSTSTTLITTNDPVKIAEDYAFLQHLSGGRVDLMMGRGNTGPVYPWFGKDIRKGIPLAVENYHLLRKLWREPVVNWKGEFRTPLQNYTSTPAPLGDVPPFVWHGSIRSVQIAEQAAFYGDGFFHNNIFWNKEHTAQMVNIYRQRFEKYGHGRADQAIVGLGGQVFIGETEAEAKKFFRPYFDNAPVYGHGPSLEEFTELTPLTVGTVEQVIERTMQFADWVGDYQRQLFLIDHAGLPLEVVLNQIEILGTQVVPELRRRMEKRRPDHVPSDPPSHSFLKAHPEHPHFLVEPSKTSAQ”, the “soluble on expression in E. coli” value was “not soluble”. With “MQFWRKQMSEIQHFSQQDIEILGEQTLYEGFFTLKRIQFKHKLFAGGQSGVVTRELLIKGAASAVIAYDPKEDSVILVEQVRIGAAYHPESHRSPWLLELIAGMVEKGEKPEDVALRESEEEAGIQVKNLTHCLSVWDSPGGIVERIHLFAGEVDSAQAKGIHGLAEENEDIKVHVVKREQAYQWMCEGKIDNGIAVIGLQWLQLNYAQLQQSWKRS” the “soluble on expression in E. coli” value was “not soluble”. For “MQGPPRFGRLGGGAARRAARAQAPLYQEQPNYRDLVELAAEQARQAAAAPPPQLVPMLRDPIPIRFHRRDELLDRFGMDLGVAHRQELPNERIELAEARDQLAEQQRRALEAQRDQLARHNALADDLRARRERIVQEARAHARRADARDARLEAAAAADRRERFLQEAQEADARRAADGDARAELGEQLRALEAAVAGLPEAQAPQLRDRRARFVARLRARRAADAQAGALANEQRALEARLEGDFADLRAAEGRLLHPPPPQVCEFFFFAHFLLKMRKNLENLSQKLRFEVENWKIPLKFEICEILWKNHENCSKKR”, the “soluble on expression in E. coli” value was “not soluble”. In the case of “MQHYLLDSNQRLNVSFSKDSVAAYYQCFNQPYRKEVPPLMCASLWPKFDLFKKYANSELILTKSAINQTQKIEVDTIYVGHLEDIECRQTRNITRYTMALTLTKNDQHVITVTQTFIKAMKLEHHHHHH”, the “soluble on expression in E. coli” value is reported as “soluble”. For “MQIEKMKLSDLKAADYNPRVDLKPGMQEYEKLKQSILEFGFVDPPIYNIQTGNLVGGHQRVAVAKELGLFNEIEVSVVDLPLDKEKALNVALNKISGRWDEEKLSILLNELDDEAVNLTGFDTEEVDSLLASFNYEEDIEKPIIEDDFQVNEFIENHHEAKTKLGQLWKLGNHYLLCGDATKLSDVEKLLQGKKANLVVTDPPYNVAVKSDNKELNESGREKIMNDDMSDEEFDQFLMSVFQNYSNAMRDDSAIYVFHGSSYQREFENSMNAAGIVVRSQCIWVKNNATFGWSQYRWQHEPVFYAHKKKQAPSWYGDRKQTTIWQDDLLEDLPATIWKVPRDDVATYYHPTQKPLSLIAIPVRNSSKRQDIVLDLFGGSGSTLMTCEQLNRICYTLELDPLFCDVIIERFEKSTGIIAELVE”, the “soluble on expression in E. coli” value was “not soluble”. With “MQILKVIGLLMEYPDELLWECKEDALALIRRDAPMLTDFTHNLLNAPLLDKQAEWCEVFDRGRTTSLLLFEHVHAESRDRGQAMVDLLAEYEKVGLQLDCRELPDYLPLYLEYLSVLPDDQAKEGLLNVAPILALLGGRLKQREAPWYALFDALLQLAGSSLSSDSVTKQVNSEERDDTRQALDAVWEEEQVKFIEDNATACDSSPLNQYQRRFSQDVAPQYVDISAGGGK” the “soluble on expression in E. coli” value was “not soluble”.
